Assay results: patent publication US6610523B1, “Cytokine-, stress-, and oncoprotein-activated human protein kinase kinases” (University of Massachusetts, priority 1995, dated 2003)

Biological target: T1, p38 MAP kinase (Homo sapiens, UniProt Q16539)
T1 construct: a PCR fragment containing the coding region of the p38 MAP kinase cDNA; GST (N); made in house; host or cells: bacteria
Test: Substrate phosphorylation by bacterially-expressed p38 MAP kinase, PhosphorImager quantitation
Format: biochemical
Details: 30 minutes reaction; ATF2 = 1.0
Procedure: Substrate phosphorylation by p38 MAP kinase was examined by incubation of bacterially-expressed p38 MAP kinase with IKB, cMyc, EGF-R, cytoplasmic phospholipase A2 (cPLA2), c-Jun, and mutated ATF2 (Thr^69,71) and ATP [γ-^32P] (Raingeaud et al. (1995) J. Biol. Chem 270:7420, herein specifically incorporated by reference). GST-IKB was provided by Dr D. Baltimore (Massachusetts Institute of Technology). GST-cMyc (Alvarez et al. (1991) J. Biol. Chem. 266:15277), GST-EGF-R (residues 647-688) (Koland et al. (1990) Biochem. Biophys. Res. Commun. 166:90), and GST-c-Jun (Dérijard et al. (1994) supra) have been described. The phosphorylation reaction was terminated after 30 minutes by addition of Laemmli sample buffer. The phosphorylated proteins were resolved by SDS-PAGE and detected by autoradiography. The rate phosphorylation of the substrate proteins was quantitated by PhosphorImager (Molecular Dynamics Inc.) analysis. The relative phosphorylation of ATF2, MBP, EGF-R, and IKB was 1.0, 0.23, 0.04, and 0.001, respectively.

T1 sequence (Q16539 whole entry, the tested form may be a part): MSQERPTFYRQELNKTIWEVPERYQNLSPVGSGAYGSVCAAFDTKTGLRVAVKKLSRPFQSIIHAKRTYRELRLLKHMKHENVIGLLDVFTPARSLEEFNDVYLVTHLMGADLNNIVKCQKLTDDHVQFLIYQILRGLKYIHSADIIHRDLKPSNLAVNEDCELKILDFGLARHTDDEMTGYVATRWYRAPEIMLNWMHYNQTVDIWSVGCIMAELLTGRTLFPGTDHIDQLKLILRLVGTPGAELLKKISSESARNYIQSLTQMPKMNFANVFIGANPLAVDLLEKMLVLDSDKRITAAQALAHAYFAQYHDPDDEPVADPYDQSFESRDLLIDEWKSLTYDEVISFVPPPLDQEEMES

- relative phosphorylation of substrate protein by p38 MAP kinase: 1.0
B1: ATF2: Activating Transcription Factor-2, substrate protein of p38 (protein)
chain: MKFKLHVNSARQYKDLWNMSDDKPFLCTAPGCGQRFTNEDHLAVHKHKHEMTLKFGPARNDSVIVADQTPTPTRFLKNCEEVGLFNELASPFENEFKKASEDDIKKMPL
